Here are results for one molecule from patent CN113150157A.

For assay [1], the target named is 表皮生长因子(EGF) (UniProt P01133). Briefly: sandwich chemiluminescence immunoassay, AntiVEGF_C capture and AntiVEGF_N-HRP detection, EGF at 30ng/ml (specificity test).
Assay [2] deals with 人成纤维细胞生长因子2(FGF2) (human) (UniProt P09038). Briefly: sandwich chemiluminescence immunoassay, AntiVEGF_C capture and AntiVEGF_N-HRP detection, FGF2 at 20μg/ml (specificity test).
In assay [3] the target is 表皮生长因子(EGF) (UniProt P01133). Briefly: sandwich chemiluminescence immunoassay, AntiVEGF_C capture and AntiVEGF_N-HRP detection, EGF at 30ng/ml; apparent VEGF concentration.
For assay [4], the target named is 人成纤维细胞生长因子2(FGF2) (human) (UniProt P09038). In words: sandwich chemiluminescence immunoassay, AntiVEGF_C capture and AntiVEGF_N-HRP detection, FGF2 at 20μg/ml; apparent VEGF concentration.

Chain of UniProt P01133 (P01133 971-1023 limits assumed): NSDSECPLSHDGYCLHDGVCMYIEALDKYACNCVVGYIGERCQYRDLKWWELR
Chain of UniProt P09038 (P09038 143-288 limits assumed): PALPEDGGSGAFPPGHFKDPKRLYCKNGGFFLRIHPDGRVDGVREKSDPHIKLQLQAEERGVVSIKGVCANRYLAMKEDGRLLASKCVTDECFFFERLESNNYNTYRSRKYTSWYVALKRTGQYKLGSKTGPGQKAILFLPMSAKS

B1: 单克隆抗体AntiVEGF_C (antibody, V domains shown)
VH: EVQLVESGGGLVQPGGSRKLSCAASGFTFSSFGMHWVRQAPEKGLEWVAFINSDSSAFYYADTVQDRFTISRDNPKNTLFLQMTSLRSEDTAMYYCARAGNHYYGGAYWGQGTLVTVSA
VL: QIVLSQSPAILSASPGEKVTMTCRASSSVSYMHWYQQRPGSSPKPWIYDTSNLASGVPVRFSGSGSGTSYSLTISRVEVEDAATYYCQQWSRHPPITFGSGTKLEIK
As to B1, the 发光值 came to 8770 RLU with 表皮生长因子(EGF) [1] and 14900 RLU in assay [2]. The 浓度值 (检测表观值) came out at 6.57 pg/mL in the assay with 表皮生长因子(EGF) [3] and 11.3 pg/mL in assay [4].
